{"source": "patent US20170275344A1", "about": "“POLYPEPTIDES AND USES THEREOF AS A DRUG FOR TREATMENT OF AUTOIMMUNE DISORDERS” (Compugen Ltd., priority 2014, published 2017)", "key": {"[1]": {"tested_on": "Female C57BL/6 recipient mice (CD45.2+)", "assay": "HY bone marrow transplantation model, male CD45.1 BM into female CD45.2 mice (FACS of blood and spleen)", "type": "in vivo, mouse", "source_text": "A transplantation model utilizing male bone marrow (BM) cells from C57BL/6 mice transplanted into female mice of the same starin was used to study whether C1ORF32 ECD-Fc induces immune tolerance. In this model BM cells of the male mouse are rejected by the female recipients due to mismatch in the minor histocompatibility antigen encoded by the Y chromosome (Hya). To allow identification of the male cells in the female mice blood, male mice expressing CD45.1 isotype were selected while the female mice carry CD45.2 isotype. This model provides a tool for testing the effect of potential drugs on induction of tolerance towards the grafted cells.\nIn this model, C1ORF32 ECD-Fc (SEQ ID NO:42) treatment started one week before bone marrow transplantation and continued for five weeks. Female recipient mice were followed for percentage of CD45.1+ and CD45.2+ cells present within the blood.\nFemale C57BL/6 recipient mice (CD45.2+) were sub-lethally irradiated with 200 rads/cGy 24 hours before transplantation of either female C57Bl/6 (CD45.1+) or male C57Bl/6 (CD45.1+) 5×10^6 bone marrow cells. Recipient mice were allocated into treatment groups as detailed below (n=6 per group). Treatments were given at 300 ug/dose i.p, 3×/wk starting one week prior to transplantation and continued for 4 weeks following transplantation, giving a total of 15 treatments during this 5 weeks period.\n1. Female CD45.1 into female CD45.2 2. Male CD45.1 into female CD45.2+anti-CD40L (300 ug/dose) (Clone MR-1; BioXCell, Cat#BE0017-1) 3. Male CD45.1 into female CD45.2+C1ORF ECD-Fc (SEQ ID NO:42) (300 ug/dose)2 4. Male CD45.1 into female CD45.2+Control Ig (mouse IgG2a) (300 ug/dose)\nBeginning at 2 weeks following bone marrow transplantation, blood samples from the tail were collected from each mouse once a week for 4 weeks. Approximately 2-3 drops of blood were collected per mouse into 200 ul of PBS+EDTA (50 mM), samples were spun down, and RBCs lysed with ammonium chloride. The cells were washed 3× with PBS, stained with the viability dye Aqua Dead Cell Stain (Invitrogen; Cat#L34957), blocked with Fc Receptor block (anti-mouse CD16/32; eBioscience; Cat#14-0161-86), and stained with anti-mouse CD45.1 APC-Cy7 (eBiosciences; Cat#47-0453-80) and anti-mouse CD45.2 FITC (eBioscience; Cat#11-0454-82). The analysis for chimerism was determined by flow cytometric analysis (on total live cells) for the percentage of CD45.1+ versus CD45.2+ cells present in the blood of female recipient mice.\nDuring weeks 6, 7, and 8 the blood samples were also stained to determine the percentage of CD4+ Teff cells and CD4+ Treg cells present within the blood using the cellular markers CD44, CD25, and FoxP3. Details of the Abs used in the flow panels for weeks 6, 7, and 8 are listed below.\nThese same populations of cells were analyzed at week 8 within the spleen. In addition, the proliferative and secreted cytokine responses of total splenocytes in ex vivo recall cultures were tested in the presence of medium alone, anti-CD3 (1 ug/ml), the HY antigen DBY peptide (NAGFNSNRANSSRSS; Genemed Synthesis; San Antonio, Tex.) (10 ug/ml), irradiated male splenocytes (1:1 ratio), or irradiated female splenocytes (1:1 ratio)."}, "male DBA-1 mice": {"tested_on": "male DBA-1 mice", "assay": "Established collagen-induced arthritis (CIA), therapeutic regimen", "type": "in vivo, mouse", "procedure": "Bovine type II collagen (CII) (RUNMC in house production, batch 03-04-08) at a concentration of 2 mg/ml in acetic acid 0.05M was emulsified in equal volumes of Freund's complete adjuvant (2 mg/ml of Mycobacterium tuberculosis strain H37Ra; Difco, Detroit, Mich.).\nOn day 0, 10-12 week old male DBA-1 mice (Janvier Elevage, France) (n=95) were immunized i.d. at the base of the tail with 100 μg of bovine CII. On day 21, mice received an intraperitoneal booster injection of 50 μg of CII dissolved in phosphate buffered saline (PBS), and the onset of arthritis occurred a few days after this booster.\nJoint inflammation in each paw was scored visually, using a scale of 0-2 per paw with a maximal score of 8 per animal: 0=non inflamed, 1=mild inflammation, 1.5=marked inflammation, and 2=severe inflammation. Scoring was performed three times a week.\nTreatment was started in established CIA early after onset of disease (i.e. therapeutic regimen), when the macroscopic scores per animal were between 0.25 and 1.25 (on a scale of 0-8). The i.p. injections were given three times per week for two weeks, after which the study was terminated and mice were terminally bled to collect serum. Thereafter, the knee and ankle joints were collected and stored in formalin. Histology was scored for inflammation and destruction on an arbitrary scale of 0-3, for five different parameters: • Joint inflammation • Cartilage proteoglycan (PG) depletion • Chondrocyte death • Cartilage erosion • Bone erosion\n1. Negative control: PBS 2. Negative control mIgG2A (Bioxcell, BE0085): 10 mg/kg 3. C1ORF32 ECD-Fc (SEQ ID NO:42): 10 mg/kg 4. C1ORF32 ECD-Fc (SEQ ID NO:42): 5 mg/kg 5. Positive control: Enbrel (Wyeth, F01421) 5 mg/kg\nJoints were fixed for at least 4 days in 4% formaldehyde, decalcified in 5% formic acid, and subsequently dehydrated and embedded in paraffin. Standard frontal sections of 7 μm were mounted on SuperFrost slides (Menzel-Glaser, Braunschweig, Germany). Haematoxylin and eosin (H&E) staining was performed to study joint inflammation. The severity of inflammation in the joints was scored on a scale of 0-3 (0=no cells, 1=mild cellularity, 2=moderate cellularity, and 3=maximal cellularity). To study proteoglycan (PG) depletion from the cartilage matrix, sections were stained with safranin O (SO) followed by counterstaining with fast green. Depletion of PG was determined using an arbitrary scale of 0-3, ranging from normal, fully stained cartilage to destained cartilage, fully depleted of PGs. Chondrocyte death was scored on a scale of 0-3 ranging from no loss of chondrocyte nuclei to complete empty cartilage surface. The degree of cartilage surface erosion was scored on a scale of 0-3, ranging from no damage to complete loss of articular cartilage. Bone destruction was graded separately on a scale of 0-3, ranging from no damage to the complete loss of bone structure. Histopathological changes in the joint were scored on three semiserial sections of the joint spaced 70 μm apart. Scoring was performed in a blindfolded manner.\nStatistical analysis: Disease course data was analyzed using one-way ANOVA with repeated measures, with a Bonferroni's post-test of selected pairs to determine statistical differences between C1ORF32 ECD-Fc (SEQ ID NO:42) and Enbrel treated mice, each as compared to Control Ig (IgG2a) treated group."}, "[2]": {"settings": "week 6 post transplant, vs Control Ig"}}}
{"molecule": "C1ORF32 ECD-Fc (SEQ ID NO:42): fusion protein of human C1ORF32 ECD fused to mouse immunoglobulin Fc (human-mouse fusion protein) (protein, Fusion protein human C1ORF32-ECD fused to mouse IgG2a Fc) LQVTVPDKKKVAMLFQPTVLRCHFSTSSHQPAVVQWKFKSYCQDRMGESLGMSSTRAQSLSKRNLEWDPYLDCLDSRRTVRVVASKQGSTVTLGDFYRGREITIVHDADLQIGKLMWGDSGLYYCIITTPDDLEGKNEDSVELLVLGRTGLLADLLPSFAVEIMGSENLYFQGSGEPRGPTIKPCPPCKCPAPNLLGGPSVFIFPPKIKDVLMISLSPIVTCVVVDVSEDDPDVQISWFVNNVEVHTAQTQTHREDYNSTLRVVSALPIQHQDWMSGKEFKCKVNNKDLPAPIERTISKPKGSVRAPQVYVLPPPEEEMTKKQVTLTCMVTDFMPEDIYVEWTNNGKTELNYKNTEPVLDSDGSYFMYSKLRVEKKNWVERNSYSCSVVHEGLHNHHTTKSFSRTPGK", "values": [{"measurement": "graft rejection", "setting": "[1]; 5 week dosing schedule beginning one week before transplant", "result": "effective in preventing graft rejection"}, {"measurement": "male donor CD45.1+ cells present in the blood of recipient females", "setting": "[1]; week 4 post transplant, maintained until week 8, 300 ug/dose i.p. 3x/wk for 5 wks", "result": "highly significant number of male CD45.1+ cells were present"}, {"measurement": "effector/memory CD4+ T cells (CD45.1+/CD4+/CD44hi) within the blood", "setting": "[1]; [2]", "result": "decrease"}, {"measurement": "resting CD4+ T cells (CD45.1+/CD4+/CD44lo) in blood", "setting": "[1]; [2]", "result": "significantly higher percentage"}, {"measurement": "activated donor CD4+ T cells (CD45.1+/CD4+/CD25+/FoxP3-) in blood", "setting": "[1]; week 7 post transplant, vs Control Ig", "result": "significantly lower percentage"}, {"measurement": "number of donor-derived (CD45.1+) CD4+/CD25+/FoxP3+ Treg cells and Treg subpopulations in spleen", "setting": "[1]; week 8", "result": "striking increase"}, {"measurement": "donor (CD45.1+) Tregs (FoxP3+CD25+) in blood", "setting": "[1]; week 8, vs Control Ig", "result": "significant increase"}, {"measurement": "donor (CD45.1+) activated CD4+ T cells (FoxP3-CD25+) in blood", "setting": "[1]; week 8, vs Control Ig", "result": "decrease"}, {"measurement": "donor (CD45.1+) effector/memory CD4+ T cells (CD44hi) in blood", "setting": "[1]; week 8, vs Control Ig", "result": "significant increase"}, {"measurement": "number of endogenous-derived (CD45.2+) Tregs and Treg subtypes in spleen", "setting": "[1]; week 8, vs Ig control group", "result": "reduced"}, {"measurement": "percentage and number of CD45.1+/CD4+ T cells within the spleen", "setting": "[1]; week 8 post transplant", "result": "increased"}, {"measurement": "clinical (macroscopic) scores of arthritis", "setting": "male DBA-1 mice; 5 mg/kg i.p. 3x/wk for 2 wks", "result": "did not demonstrate any effect"}, {"measurement": "clinical (macroscopic) scores of arthritis", "setting": "male DBA-1 mice; 10 mg/kg i.p. 3x/wk for 2 wks, p<0.001 vs mIgG2a", "result": "significantly reduced the clinical scores of arthritis"}, {"measurement": "histological arthritis pathology of ankle joints", "setting": "male DBA-1 mice; 10 mg/kg, after two weeks of therapy, did not reach statistical significance", "result": "trend of reduced arthritis pathology"}, {"measurement": "results over three CIA studies", "setting": "male DBA-1 mice; three studies", "result": "excellent results in two studies and weak results in one study"}]}
